Entries after “also recorded” stand apart in the source; their conditions may differ.
What was measured:
APP = biological target: T1, APP (Homo sapiens, UniProt P05067); assay: cell-based AP binding assay, APP expressing COS-1 cells; settings: DR6-AP conditioned medium 1:1 with binding buffer, 90 minutes
T1 construct: expressed in transfected cells; host or cells: COS-1
Experimental: The materials and methods used to generate the data shown in this figure are as follows. To test whether APP directly interacts with DR6 extracellular domain, a cell-based AP binding assay was carried out (FIG. 14B). To generate DR6 ectodomain-AP fusion protein (DR6-AP), COS-1 cells cultured in DMEM/10% FBS (Gibco) medium were transfected with 15 microgram of DR6-AP fusion expression construct using FuGene transfection reagent (Roche) according to the manufacturer protocol. Twelve hours post-transfection, COS-1 cell medium was changed to OPTI-MEM (Invitrogen). Forty-eight hours post-transfection, COS-1 cell conditioned medium containing DR6-AP proteins was collected and filtered.
The amount of DR6-AP proteins in the medium was quantified according to the following procedure. 100 microliters of 2×AP buffer (prepared by adding 100 mg Para-nitrophenyl phosphate (Sigma) and 15 microliter of 1M MgCl2 to 15 ml 2M diethanolamine pH 9.8) was mixed with equal volume of transfected COS cell conditioned medium or control conditioned medium from untransfected COS-1 cells. […] The volume of reaction was then adjusted by adding 800 microliters of distilled water and the O.D. was measured at 405 nm absorbance wavelength. The concentration in nM was calculated according to the formula (for 100 microliter): C (nM)=O.D.×100×(60/developing time)/30. […]

DR6 receptor = biological target: T2, DR6 receptor (Homo sapiens, UniProt O75509); assay: cell-based AP binding assay, DR6 receptor expressing COS-1 cells; settings: same conditions as APP binding
T2 construct: expressed in transfected cells; host or cells: COS-1
T2 sequence (O75509 42-655): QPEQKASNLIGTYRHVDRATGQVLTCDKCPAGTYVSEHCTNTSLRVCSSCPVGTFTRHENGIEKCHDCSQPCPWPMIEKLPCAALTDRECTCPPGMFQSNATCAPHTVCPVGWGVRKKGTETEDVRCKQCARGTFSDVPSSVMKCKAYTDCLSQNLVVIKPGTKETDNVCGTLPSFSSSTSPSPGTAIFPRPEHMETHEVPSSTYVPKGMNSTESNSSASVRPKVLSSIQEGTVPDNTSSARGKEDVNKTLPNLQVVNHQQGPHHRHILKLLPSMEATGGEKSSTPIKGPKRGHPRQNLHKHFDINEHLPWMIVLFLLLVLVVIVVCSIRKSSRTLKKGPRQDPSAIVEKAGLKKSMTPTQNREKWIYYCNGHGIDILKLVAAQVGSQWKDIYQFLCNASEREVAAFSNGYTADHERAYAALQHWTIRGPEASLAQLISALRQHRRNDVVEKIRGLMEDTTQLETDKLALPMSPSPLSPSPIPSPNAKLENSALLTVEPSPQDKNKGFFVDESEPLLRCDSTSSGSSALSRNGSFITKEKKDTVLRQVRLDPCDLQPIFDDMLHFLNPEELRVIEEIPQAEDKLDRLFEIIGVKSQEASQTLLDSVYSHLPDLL
Experimental: (§1) For the APP AP binding assay, COS-1 cells cultured in DMEM/10% FBS (Gibco) medium in 6-well culture dishes were transfected with 2 microgram of APP expressing vector per well using FuGene transfection reagent (Roche) according to the manufacturer protocol. Two days post-transfection, cells were washed twice with the binding buffer (HBSS, Gibco Cat. No. 14175-095, with 0.2% BSA, 0.1% NaN3, 5 mM CaCl2, 1 mM MgCl2, 20 mM HEPES, pH=7.0). An AP binding assay was then carried out by making a 1:1 mixture of DR6-AP conditioned medium and the binding buffer, which was applied directly to APP over-expressing COS-1 cells and incubated for 90 minutes at room temperature. Following the incubation, the unbound DR6-AP proteins were washed away by rinsing COS-1 cells five times with the binding buffer. Cells were then fixed with 3.7% formaldehyde diluted in PBS, for 12 minutes at room temperature. The remaining formaldehyde was removed by rinsing cells 3 times with HBS buffer (20 mM HEPES pH=7.0, 150 mM NaCl). Endogenous AP activity was blocked by heat inactivation at 65° C. in HBS buffer for 30 minutes. COS-1 cells were then rinsed three times in the AP reaction buffer (100 mM TRIS pH=9.5, 100 mM NaCl, 50 mM MgCl2). […]

p75NTR = biological target: T3, p75NTR (Homo sapiens, UniProt P08138); assay: cell-based AP binding assay, p75NTR expressing COS-1 cells; settings: same conditions as APP binding
T3 construct: expressed in transfected cells; host or cells: COS-1
T3 sequence (P08138 29-427): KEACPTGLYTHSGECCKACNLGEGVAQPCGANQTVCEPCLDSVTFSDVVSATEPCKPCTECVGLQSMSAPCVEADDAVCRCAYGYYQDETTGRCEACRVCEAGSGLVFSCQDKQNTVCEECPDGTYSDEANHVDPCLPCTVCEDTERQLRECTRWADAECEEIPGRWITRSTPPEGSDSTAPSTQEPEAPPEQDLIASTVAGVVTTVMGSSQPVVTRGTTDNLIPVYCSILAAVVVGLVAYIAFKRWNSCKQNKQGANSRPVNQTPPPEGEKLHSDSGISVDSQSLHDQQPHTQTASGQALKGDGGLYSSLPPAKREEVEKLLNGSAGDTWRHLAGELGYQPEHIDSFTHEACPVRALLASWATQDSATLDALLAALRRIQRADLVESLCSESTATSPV
Experimental: as §1

T1 sequence (P05067 18-770): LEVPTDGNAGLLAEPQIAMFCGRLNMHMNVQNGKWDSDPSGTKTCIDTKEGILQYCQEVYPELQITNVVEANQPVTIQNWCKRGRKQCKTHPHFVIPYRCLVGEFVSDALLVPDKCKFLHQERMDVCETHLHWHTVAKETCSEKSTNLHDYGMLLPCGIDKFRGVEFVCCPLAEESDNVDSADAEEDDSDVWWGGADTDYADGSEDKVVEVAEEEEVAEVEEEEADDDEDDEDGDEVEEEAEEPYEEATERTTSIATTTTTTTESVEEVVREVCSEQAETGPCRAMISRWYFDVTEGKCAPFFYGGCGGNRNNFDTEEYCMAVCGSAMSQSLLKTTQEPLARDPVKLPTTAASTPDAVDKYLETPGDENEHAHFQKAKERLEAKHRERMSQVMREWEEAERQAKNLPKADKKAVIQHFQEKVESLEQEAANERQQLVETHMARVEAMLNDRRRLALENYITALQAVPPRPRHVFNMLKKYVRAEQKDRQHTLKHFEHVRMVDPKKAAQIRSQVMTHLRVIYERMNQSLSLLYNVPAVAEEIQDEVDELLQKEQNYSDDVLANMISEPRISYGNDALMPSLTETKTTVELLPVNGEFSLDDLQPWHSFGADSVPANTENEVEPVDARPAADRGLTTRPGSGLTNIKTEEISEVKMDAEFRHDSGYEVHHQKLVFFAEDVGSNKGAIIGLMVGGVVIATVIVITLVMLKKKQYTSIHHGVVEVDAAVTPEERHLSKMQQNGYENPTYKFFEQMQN

B1: DR6-AP: mouse DR6 ectodomain fused to human placental alkaline phosphatase (protein)
chain: QPEQKTLSLPGTYRHVDRTTGQVLTCDKCPAGTYVSEHCTNMSLRVCSSCPAGTFTRHENGIERCHDCSQPCPWPMIERLPCAALTDRECICPPGMYQSNGTCAPHTVCPVGWGVRKKGTENEDVRCKQCARGTFSDVPSSVMKCKAHTDCLGQNLEVVKPGTKETDNVCGMRLFFSSTNPPSSGTVTFSHPEHMESHDVPSSTYEPQGMNSTDSNSTASVRTKVPSGIEEGTVPDNTSSTSGKEGTNRTLPNPPQVTHQQAPHHRHILKLLPSSMEATGEKSSTAIKAPKRGHPRQNAHKHFDINEHIIPVEEENPDFWNREAAEALGAAKKLQPAQTAAKNLIIFLGDGMGVSTVTAARILKGQKKDKLGPEIPLAMDRFPYVALSKTYNVDKHVPDSGATATAYLCGVKGNFQTIGLSAAARFNQCNTTRGNEVISVMNRAKKAGKSVGVVTTTRVQHASPAGTYAHTVNRNWYSDADVPASARQEGCQDIATQLISNMDIDVILGGGRKYMFRMGTPDPEYPDDYSQGGTRLDGKNLVQEWLAKRQGARYVWNRTELMQASLDPSVTHLMGLFEPGDMKYEIHRDSTLDPSLMEMTEAALRLLSRNPRGFFLFVEGGRIDHGHHESRAYRALTETIMFDDAIERAGQLTSEEDTLSLVTADHSHVFSFGGYPLRGSSIFGLAPGKARDRKAYTVLLYGNGPGYVLKDGARPDVTESESGSPEYRQQSAVPLDEETHAGEDVAVFARGPQAHLVHGVQEQTFIAHVMAFAACLEPYTACDLAPPAGTTDAAHPG
binding of DR6 ectodomain to APP expressing cells (APP): binds APP expressed by cultured cells | binding of DR6 ectodomain to DR6 receptor expressing cells (DR6 receptor): does NOT bind; also recorded: no specific binding | binding of DR6 ectodomain to p75NTR expressing cells (p75NTR): does NOT bind; also recorded: no specific binding
